Measured values: the DeepSol protein solubility set

Experiment: soluble on expression in E. coli; label from the status in PepcDB or PDB records

Sequence	soluble on expression in E. coli
MGSDKIHHHHHHMVTNVRIGAMQAYMVAEPWNTRAITGNENIGFTFAQGKEVWLGHPDRLLGVMESFIDKYPKTYRSLVKAMIEACQYCSKAENRQEVAELLTERSFTGARPKKKGAPIAKFTSPGILGNYNYGGFDGKDRTIKAADTTIFFDIPDNLPKQPGEHSTFLWRSRSIWLMTQAARWGQIKEFPKNADKLAQQGWRTDLYREIASEMGIQCPKDDYKVEPPEVFIDKKGFDPSDPVGYLNSFAIRANAPTNFFMS	not soluble
MLLDVQHGQFGFIKGGIIAVIWFSLSRTINCGQLNLECFEFWLPTSQLLVLDVCLFDAFALEHHHHHH	not soluble
MERAEILGVGTELLYGETLDTNTAEIARSLKPYALKVERTLRVADEVAPLAREVEEAFARARLVVLSGGLGPTPDDVTREAVALALGEPLELDEAVLGEIEAFFRARGRAMPEANRKQAMRIPSATWLKNPRGTAPGWWVRKGGKDLVLLPGPPPEWRPMWQEVLPRLGLPRRPYAERVLKTWGIGESEIVERLGPLFVRGEEVEVGTYPKVHGVEVVVRGREDRVAELAERIKKKLLKEVWGEGEMTLAEAVKRRMEREGATLSTMESLTGGLLGAEITRVPGASRFYLGGVVSYSVGAKARFGVPQDLLSRTVSAETARAMAEAARSLFGSTYALATTGVAGPDPLEGEPPGTVYVALAGPTGAEVRRYRFPGDRETVRLRSVYAALALLVT	soluble
MGSDKIHHHHHHMSAEEQINQFKKFCAAIISFDEEEWQAMEKCLRIKFLSKDDYFLRQGKTCSRMGFVCKGYTRLFFLIDGEEHTKDFCFENTFTGSLASFLVRKPAAFNVVAMEDTYMLTIEYNALMELYKNYMCWNTFGRIVVEQFAIRKENREVTFLLNTPEKRYEEVSDQYPHLLQRAPLKMIASYLNMTPETLSRIRSKKTK	not soluble
MKTPNAQEAEGQQTRAAAGRATGSANMTKKKVSQKKQRGRPSSQPRRNIVGCRISHGWKEGDEPITQWKGTVLDQVPINPSLYLVKYDGIDCVYGLELHRDERVLSLKILSDRVASSHISDANLANTIIGKAVEHMFEGEHGSKDEWRGMVLAQAPIMKAWFYITYEKDPVLYMYQLLDDYKEGDLRIMPESSESPPTEREPGGVVDGLIGKHVEYTKEDGSKRIGMVIHQVEAKPSVYFIKFDDDFHIYVYDLVKKS	soluble
MGKIQARIPDEVQEVASAVIKSTGLTVSDAVRMFMTRIARDRALPLDLFQPNLETLQAIEDAEMGRVERTSLDGLRAMIRDDKAEVCKSAK	not soluble
MANQKKDSLSTLFSEEVHGPFVTFLFNTHVAHQNVEKDSLVLKNFAKAAKTRFEKKFPEEKWSVFQEKIDALLADASFWRNGTASVSIILSPENTFVQRLDVPVDDQYYVDTIPYLLGLVKDKQFNYHYYLLALNRDSMKLYKVDHTTVTPVELPKDAPTDVVTALGDELTGGNLNFSTQGSSNGSKEGVAYHSINTKDKEVEIDWVNYYQAVDTFLKDQLDNPEKLPLYLYALPENQTLFKKIAKNPYYDCSISVAASPAQATIQDIRSASEKIAAELTEKETASYNKLLDRKFLDQFTDISPAAADGKISHLFIATSLFVTENNEMSSEEYDRRKLLNTIAYQVIQNGGQVFVLDQKAAPDEKSLAAILRY	not soluble
MSLDNDTVKVGDLVQINLPGEASLNQGFQVDRRGRINLPEIGPVFVAGYNEQQLQDVIIETLKTVYRDVNNARVFIKQQQLLVSVQGYVVKPGEYTLPAGSNIQMFVYEAGGLRAGAQLDKMIVKRGDQNIEFDYKRFLDTGDNEGHHHHHH	soluble
MLVEFDNPPLCMKSNKDGSRLVVGFVDGSIRFYDTQQHEEEFQEIWKFQTKSSIRGVDLDEHKKRVYAVTKNRSLCVFDIDTGKRVRCILKCHRSVPTAICTLPPTALKSQQLATADESGEVKTWNLDPEVASENANIRKWQEQDEDINDLKVDVKSNLLATSSDGTLGAYDLRKAKLKMRSELMHSELYSVCGTNRSVYVGGEDGYVEVFNLNEYGNLLERVESGFEMGVNGIVELRSGLLGLTSQGSNRMRLLNVQPSKRLGYAGYHGDEKSDDDGIDAITISTDKSTVFTMISMSCTIKKWDMGPIIDEIPILRAQDAKSKKMRKTEGFFDGLVGPKNDSDSDDDDEPKSKKRRNDEDSDEEIDEEEQEEDDEEEEEDSD	not soluble
DKSNKLQNLVAEQLVGCGFNEILNNSLTRAAYYDGLESYPSKNLVMLLNPLSADLNCMRQTLLFGGLESIAHNANRKNADLKFFEFGNCYHFDAEKKNPEKVLAPYSEDYHLGLWVTGKMVSNSWAHADENTSVYELKAYVENIFKRLGLDLHSLVVGNLSDDIYSTALTVNTKGGKRLATFGVVTKKMLKAFDVDNEVYYADLNWK	not soluble
MGSDKIHHHHHHMTTRVIALDLDGTLLTSKKTILPASLEALARAREAGYQVIVVTGRHHVAIHPFYQALALDTPAICCNGTYLYDYHAKKVLAADPMPVEQAVSLTAMLAKQQIHGLAYVDDAMLYEHPTGHVIRTRNWAQALPEDQRPVFAQVDSLAQAVREVNAVWKFALTDDDIPRLQRFAQQVGETLGLECEWSWHDQVDIARAGNSKGKRLAQWVADQGLSMQDVMAFGDNYNDLSMLEAAGTGVAMGNAVDEVKARANIVIGDNESTSIAEFIYRQLL	not soluble
MCMSATLSRPGCGACCIAPSISSPIPGMPQGKPAGSRCVQLDDDMRCRIFGHPDRPDVCSSLQPSTELCADDREQAMTWLLKLEELTLPARLEHHHHHH	not soluble
MKQIYFGGGCFWGTQKYFDLIKGVQKTSVGYLNSNMKNPTYEQVCSGQTNAVEAVFVEYDENKVSLNELIDAFFKVIDPTIRNRQGNDIGTQYRTGVYWVDPQDEQLITQKFRELQANYPKPIVTENRAMENYFLAEEYHQDYLKKNPHGYCHIKFD	soluble
MEAIKDKERKERRDKKLAIANLAAKQKREKKKQQKNGAELAARARKAKAEKAKTSEPPAQGVVTRAAAQKAREAAQAANHQ	not soluble
MGSDKIHHHHHHMQNKNKTVVKSMALLNLFLHKPSLTLSELVSLTGMPKTSVHRMVSSLEEMGFLSRDASGAYSLGLVFLEFGQLVADRLDIRKIAKPVMEELCREVDEAVQLIMRDGNEAIYVEKIEGTQTVRLYTAIGRRSPLYAGACARSILSFLPREEIEAYIKQTELISIGSGTITDPEKLLQEIDASVQNGYTVSYSELENYTAAIGAPIFNHERQVAAGISIAGFEARFTEDRLPYLTEKVKDAALQISRK	not soluble
MTGSTAGKVLVVGALGVVGRAALEHFGQRPGLARVGLSRRAPDFAPEATWISADLRDAQATRAALAAHGDATHVVYAALNEQPDLLKGWRDSGNVDLNTRMLRNTLDALREAPLRHVTLLQGTKAYGVHTGRPMPVPARETDAVRDHANFYFDQQDLLAERAAAQGFAWTIFRPQIVLGVALGSAMNPVATLGAYAALSREAGQPLRYPGHPHLLTECTDARLIARAIAWAWDEPRAHGEAFNIANGDVVLWQPVFERLAALFGMPLGEPVDTRMREAMPEQAERWRAIAERERLAVPQLRDLIGLSWQYADATWAARHPLPVPPLVSTIKLRQAGFGDCIDTQECIVEHLREMQRLRYLPRLEHHHHHH	not soluble
MQINNQSRDVFYVSDGTAITCETLGHVVLGQFPFIPNEKTFPFVESQDKVADVVKEIETSYQRNGVKPLVFFSIVVPGVREMLLEAPAYSYDVLESIVQKVQDDIQMAPAPKLQRSRSVGKDSDTYFDRIAAIEYTLAHDDGITLKGLEQADIILLGVSRSGKTPTSLYMAMQFGLRVVNYPFIAEDVKMMRLLPEFEVHRHKLFGLTITPERLNEIRENRLSGSDYASEEQCKLELDTVEALFRREAIPYINTSSLSVEEISTRILERAGMKRRLFGLEHHHHHH	soluble
MAIKNEIKNCLIMSVNPSYPLPLLCQYIPRYHPQMPTCPLFESKSIITPVFYFNCKRMDRSIDRRLCGHCHQSIGSEALVAMNRLWHPDHFTCSSCKRPIKQTFQAADNHAYCVQCFAQKYNPKCAGCMETLVDTCLLALDRHWHPRCFTCSSCNRPLPNGEFYLVDDKPYDLDCHWAKRLEKREHMERGER	not soluble
MLRLFKIQKAPLSQFSKASNEIVKDFIEKMEKAAGSGDKVKFSDCFTEDFQFFACSFTANKAQFVEKHLTNPNPEPVIPKYSNFDENDSKIKFTVSRRVGPEVNIVDFDLLRENDGPWRLQWGKVTTCP	not soluble
MAHHHHHHMFQRARFLLLPIDDVLPAGSRWSRVTALPTSHAHPSGASRASRTGPVTANTTSALPPTPYITFIPTLHVASVKFYDAVLDYMRESVEKNSNVVVLLEGICDNKEGRIQQMDEYMQISRSEELRAAMLEKAEKNTLYNDETIRTICDELAVNYDVLSRELETVRLQECYLRPKMAALMGKNLCNEADIDMEEVEALMLEGDNNDHSGSYGACGSGSVVPITSIGSHPAVRRSREMKVARKARATCVDWLKHGVAGEVILPWGIYHVEGIQRNVLSLNAQDEGIVFVESGNDIRHVPFGIHRDLLVL	not soluble
MSLSTELDFEKPIRDLKGKIEELRTFTEEKEIDLSDEIEKLEKRLHALEENIYGNLKPWQRVQIARHGERPTTLDYIEQLFSDFLEMHGDRLYGDDEAIVAGIAKYKGQPVTVIGHQRGKDTKENIRRNFGMPHPEGYRKALRLMKQAEKFHRPVICFIDTKGAYPGKAAEERGQSEAIARNLLEMAGLKVPIVCIVIGEGGSGGALALGVGDRIHMLENSTYSVISPEGAAALLWKDASQAQRAAETMKITAPDLKELQIIDDIIPEVRGGAHRNVAEQAEAIDQVLEKSLKQLSSLTTEELLNKRYEKYKKIGEFSHVNDAISVNEGHHHHHH	soluble
MSLSTLQDLEKTLWATADKMRANMDPAEYKHIVLGLIFLKYISDSFAGRRAELERKFSDAGDDYYLGGDDPTYLASELEERDYYKEVNVFWVPEPARWESLRAAAKQVDIGKRIDDALADIEAENPQLKNILDKRYARAQLPDGKLGELVDMISIIGFSSDANKARDLLGQVYEYFLGQFASAEGKRGGQFYTPASIVKTLVAVLNPHHGKVYDPCCGSGGMFVQSEKFIEAHGGKLGDVSIYGQESNPTTWRLAAMNLAIRGMDFNLGKEPADSFIRNQHSDLRADFVLANPPFNISDWWHGSLDGDSRWVYGTPPQGNANYAWLQHMLFHLKSSGRAGIVLANGSMSSSQNSEGDIRRAMVEADVVEVMVALPGQLFFNTQIPACLWFLAKQKNKRPGEVLFIDARKLGTNISRVQIELLDSDIESIAQTVANWRGVPLEVDGEIAEYADVAGFCRSVPLAEIAEHGHVLTPGRYVGAEAVEDDDEAFADKMQDLTALLGEQLAKGTELDQLIRHKLGGLGYEEGHHHHHH	soluble
AGMSEAPRAETFVFLDLEATGLPSVEPEIAELSLFAVHRSSLENPEHDESGALVLPRVLDKLTLCMCPERPFTAKASEITGLSSEGLARCRKAGFDGAVVRTLQAFLSRQAGPICLVAHNGFDYDFPLLCAELRRLGARLPRDTVCLDTLPALRGLDRAHSHGTRARGRQGYSLGSLFHRYFRAEPSAAHSAEGDVHTLLLIFLHRAAELLAWADEQARGWAHIEPMYLPPDDPSLEA	soluble
MGSDKIHHHHHHMDTKQLKQDIIDYAYTIGIDSIGFTTADPFDELKQKLEAYHANGYASGFEESDIALRTEPKLSLPTARSIIAIAVGYPNKLKGAPKSVRGDRRGLFARASWGQDYHTIMRKRLDMLAAFIESKVPDVEIKSMVDTGVLSDRAVAERAGLGFVGRNGFVINPKLGTWTYLGEMLVSIPFEPDDPLLDSCGDCTICVDRCPTSALVGNGQLNSQKCISFLTQTKGYMPDQYRYKIGNRLYGCDTCQQVCPKNRGINTEQDDIILEPEILKPRLVPLLRMSNKEFKQTYGHLAGAWRGKKPIQRNAILALAHFNEVDAIPELKKVATTDERPMIRATAYWAIGQILGEEARDFINANYDQEDAEVQNEMIKGLDTRRE	not soluble
